From the supplement of paper PMC9233669
This sample holds only a part of the variants without activity.

Legend:
[1] = system: biotinyl-Phe-oxazolone; test: self-aminoacylation, catalytic enhancement (BFO) (fold over background); higher = more active; k-Seq, kA / k0A0; sequences stand for … in GGGAAUGGAUCCACAUCUACGAAUUC…UUCACUGCAGACUUGACGAAGCUG
Outline: (§1)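 Mutagenized RNA pools with a 21-nt variable region (0.43 μM) were reacted with each biotinyl-aminoacyl-oxazolone at 2–1250 μM for 90 minutes at room temperature, in 50 μL HEPES/NaCl/KCl/MgCl2/CaCl2 buffer containing 5% acetonitrile at pH 6.9–7.0. RNA captured on streptavidin was quantified by triplicate qPCR and by Illumina sequencing. The fraction reacted for each sequence was fit to a pseudo-first-order model with bootstrapping, and catalytic enhancement is the median kA divided by the uncatalyzed rate, taken as the low-activity peak of a bimodal Gaussian fit.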

[2] = system: biotinyl-Ile-oxazolone; test: self-aminoacylation, catalytic enhancement (BIO) (fold over background); higher = more active; k-Seq, kA / k0A0; sequences stand for … in GGGAAUGGAUCCACAUCUACGAAUUC…UUCACUGCAGACUUGACGAAGCUG
Outline: as §1

[3] = system: biotinyl-Leu-oxazolone; test: self-aminoacylation, catalytic enhancement (BLO) (fold over background); higher = more active; k-Seq, kA / k0A0; sequences stand for … in GGGAAUGGAUCCACAUCUACGAAUUC…UUCACUGCAGACUUGACGAAGCUG
Outline: as §1

[4] = system: biotinyl-Trp-oxazolone; test: self-aminoacylation, catalytic enhancement (BWO) (fold over background); higher = more active; k-Seq, kA / k0A0; sequences stand for … in GGGAAUGGAUCCACAUCUACGAAUUC…UUCACUGCAGACUUGACGAAGCUG
Outline: as §1

[5] = system: biotinyl-Val-oxazolone; test: self-aminoacylation, catalytic enhancement (BVO) (fold over background); higher = more active; k-Seq, kA / k0A0; sequences stand for … in GGGAAUGGAUCCACAUCUACGAAUUC…UUCACUGCAGACUUGACGAAGCUG
Outline: as §1

[6] = system: biotinyl-Met-oxazolone; test: self-aminoacylation, catalytic enhancement (BMO) (fold over background); higher = more active; k-Seq, kA / k0A0; sequences stand for … in GGGAAUGGAUCCACAUCUACGAAUUC…UUCACUGCAGACUUGACGAAGCUG
Outline: as §1

Sequence | self-aminoacylation [1] | self-aminoacylation [2] | self-aminoacylation [3] | self-aminoacylation [4] | self-aminoacylation [5] | self-aminoacylation [6]
AUUCACCUAGGUAAUAGGGUG [Fam2.2 aminoacylation ribozyme variant] | 22 | 2.7 | 5.63 | 4.25 | 2.43 | 4.95
AUUCACCUAGGUAAUCGGGUA [Fam2.2 aminoacylation ribozyme variant] | 5.56 | 1.39 | 1.33 | 1.8 | 1.47 | 1.55
AUUCACCUAGGUAAUCGGUUG [Fam2.2 aminoacylation ribozyme variant] | 0.536 | 0.71 | 0.91 | 0.967 | 0.687 | 0.735
AUUCACCUAGGUAUUCGGGUG [Fam2.2 aminoacylation ribozyme variant] | 21.8 | 2.81 | 5.02 | 3.35 | 2.59 | 3.34
AUUCACCUAGGUCAACGGGUA [Fam2.2 aminoacylation ribozyme variant] | 0.801 | 1.41 | 1.29 | 1.83 | 1.08 | 1.12
AUUCACCUAGGUCAACGGGUC [Fam2.2 aminoacylation ribozyme variant] | 0.507 | 0.899 | 0.807 | 0.902 | 1.07 | 0.915
AUUCACCUAGGUCAAGGGGUG [Fam2.2 aminoacylation ribozyme variant] | 4.67 | 1.37 | 1.41 | 1.3 | 1.3 | 1.43
AUUCACCUAGGUCAAUGGGUG [Fam2.2 aminoacylation ribozyme variant] | 6.93 | 1.42 | 2.23 | 1.65 | 1.38 | 1.75
AUUCACCUAGGUCACCGCGUG [Fam2.2 aminoacylation ribozyme variant] | 85.2 | 7.2 | 18.1 | 10.9 | 6.86 | 12.6
AUUCACCUAGGUCACCGGGGG [Fam2.2 aminoacylation ribozyme variant] | 21.4 | 3.62 | 3.12 | 4.38 | 3.51 | 3.37
AUUCACCUAGGUCACCGUGUG [Fam2.2 aminoacylation ribozyme variant] | 4.55 | 1.13 | 1.48 | 1.24 | 1.33 | 1.33
AUUCACCUAGGUCAGCCGGUG [Fam2.2 aminoacylation ribozyme variant] | 61.6 | 5.17 | 11.3 | 6.47 | 5.3 | 7.35
AUUCACCUAGGUCAGCGAGUG [Fam2.2 aminoacylation ribozyme variant] | 25.3 | 3.44 | 6.37 | 5.84 | 3.34 | 4.93
AUUCACCUAGGUCAUCAGCUG [Fam2.2 aminoacylation ribozyme variant] | 0.631 | 0.757 | 0.804 | 0.477 | 0.757 | 0.806
AUUCACCUAGGUCAUCAGGCG [Fam2.2 aminoacylation ribozyme variant] | 1.02 | 1.26 | 1.54 | 1.87 | 1.32 | 1.47
AUUCACCUAGGUCAUCAGUUG [Fam2.2 aminoacylation ribozyme variant] | 0.935 | 0.954 | 0.942 | 0.698 | 0.939 | 0.88
AUUCACCUAGGUCAUCCGGCG [Fam2.2 aminoacylation ribozyme variant] | 15.3 | 3.31 | 3.69 | 4.29 | 4.01 | 3.55
AUUCACCUAGGUCAUCCGGUG [Fam2.2 aminoacylation ribozyme variant] | 44.9 | 4.67 | 8.38 | 6.3 | 4.69 | 6.35
AUUCACCUAGGUCAUCGAGGG [Fam2.2 aminoacylation ribozyme variant] | 3.09 | 1.58 | 2.89 | 1.1 | 1.43 | 2.19
AUUCACCUAGGUCAUCGCGUG [Fam2.2 aminoacylation ribozyme variant] | 100 | 7.1 | 17.4 | 11.5 | 7.35 | 13
AUUCACCUAGGUCAUCGGCCG [Fam2.2 aminoacylation ribozyme variant] | 16.6 | 3.35 | 4.25 | 5.29 | 3.45 | 4.04
AUUCACCUAGGUCAUCGGCUA [Fam2.2 aminoacylation ribozyme variant] | 11.2 | 2.67 | 2.98 | 2.62 | 2.62 | 2.57
AUUCACCUAGGUCAUCGGCUC [Fam2.2 aminoacylation ribozyme variant] | 5.2 | 2.5 | 2.45 | 2.47 | 2.22 | 2.14
AUUCACCUAGGUCAUCGGGAA [Fam2.2 aminoacylation ribozyme variant] | 26 | 4.54 | 9.17 | 6.07 | 4.14 | 5.51
AUUCACCUAGGUCAUCGUAUG [Fam2.2 aminoacylation ribozyme variant] | 0.528 | 0.593 | 0.553 | 0.207 | 0.737 | 0.503
AUUCACCUAGGUCAUCGUGUG [Fam2.2 aminoacylation ribozyme variant] | 2.56 | 0.867 | 1.07 | 0.654 | 0.932 | 0.951

Sequence | self-aminoacylation [1] | self-aminoacylation [2] | self-aminoacylation [3] | self-aminoacylation [4] | self-aminoacylation [5] | self-aminoacylation [6]
AUUCACCUAGGUCAUCUGCUG [Fam2.2 aminoacylation ribozyme variant] | 2.81 | 0.819 | 0.964 | 0.391 | 0.81 | 0.724
AUUCACCUAGGUCAUCUGUUG [Fam2.2 aminoacylation ribozyme variant] | 0.429 | 0.795 | 0.618 | 0.373 | 0.693 | 0.564
AUUCACCUAGGUCAUGGGGUA [Fam2.2 aminoacylation ribozyme variant] | 1 | 1.96 | 1.88 | 1.56 | 1.83 | 2.13
AUUCACCUAGGUCAUUGGGCG [Fam2.2 aminoacylation ribozyme variant] | 10.6 | 2.58 | 3.36 | 3.16 | 2.66 | 2.49
AUUCACCUAGGUCAUUGGGUC [Fam2.2 aminoacylation ribozyme variant] | 1.09 | 0.922 | 0.89 | 0.734 | 0.867 | 0.808
AUUCACCUAGGUCAUUGGGUU [Fam2.2 aminoacylation ribozyme variant] | 5.73 | 1.23 | 1.15 | 1.52 | 1.19 | 1.34
AUUCACCUAGGUCAUUGUGUG [Fam2.2 aminoacylation ribozyme variant] | 0.805 | 0.871 | 1.03 | 0.463 | 0.835 | 0.898
AUUCACCUAGGUCCUCGGGUC [Fam2.2 aminoacylation ribozyme variant] | 4.38 | 1.21 | 1.16 | 0.77 | 1.34 | 1.51
AUUCACCUAGGUCCUCUGGUG [Fam2.2 aminoacylation ribozyme variant] | 31.1 | 2.57 | 5.9 | 4.56 | 2.58 | 4.3
AUUCACCUAGGUCCUGGGGUG [Fam2.2 aminoacylation ribozyme variant] | 57.2 | 4.6 | 9.12 | 7.11 | 4.05 | 7.35
AUUCACCUAGGUCGUCCGGUG [Fam2.2 aminoacylation ribozyme variant] | 14.4 | 2.52 | 3.89 | 2.39 | 2.35 | 3.34
AUUCACCUAGGUCGUCGGGUG [Fam2.2 aminoacylation ribozyme variant] | 9.32 | 1.61 | 2.09 | 1.66 | 1.77 | 1.84
AUUCACCUAGGUCUACGGGUG [Fam2.2 aminoacylation ribozyme variant] | 27.6 | 3.16 | 4.92 | 4.07 | 3.11 | 4.62
AUUCACCUAGGUCUUCGCGUG [Fam2.2 aminoacylation ribozyme variant] | 16.6 | 2.95 | 4.5 | 3.32 | 3.96 | 4.3
AUUCACCUAGGUCUUCGGCUG [Fam2.2 aminoacylation ribozyme variant] | 6.94 | 2.12 | 2.59 | 1.46 | 1.87 | 1.8
AUUCACCUAGGUCUUCGGGUA [Fam2.2 aminoacylation ribozyme variant] | 17.4 | 3.31 | 3.22 | 3.79 | 3.6 | 3.75
AUUCACCUAGGUGAUCGGGGG [Fam2.2 aminoacylation ribozyme variant] | 21.6 | 5.84 | 5.33 | 7.47 | 4.72 | 4.53
AUUCACCUAGGUGAUUGGGUG [Fam2.2 aminoacylation ribozyme variant] | 13.2 | 2.17 | 3.06 | 2.96 | 2.41 | 2.68
AUUCACCUAGGUGGUCGGGUG [Fam2.2 aminoacylation ribozyme variant] | 18.3 | 2.49 | 4.09 | 3.42 | 2.77 | 2.41
AUUCACCUAGGUUGUCGGGUG [Fam2.2 aminoacylation ribozyme variant] | 27.3 | 3.53 | 5.86 | 4.65 | 3.2 | 4.89
AUUCACCUAGUCCAUCGGGUG [Fam2.2 aminoacylation ribozyme variant] | 40.5 | 3.54 | 6.98 | 6.38 | 3.82 | 6.16
AUUCACCUAGUUCAUCAGGUG [Fam2.2 aminoacylation ribozyme variant] | 0.467 | 0.872 | 0.986 | 0.893 | 0.934 | 0.796
AUUCACCUAGUUCAUCCGGUG [Fam2.2 aminoacylation ribozyme variant] | 21.9 | 3.1 | 3.89 | 3.54 | 2.52 | 3.23
AUUCACCUAGUUCAUCGUGUG [Fam2.2 aminoacylation ribozyme variant] | 4.05 | 0.937 | 1.25 | 1.1 | 1.11 | 1.2
AUUCACCUAUAUCAUCGGGUG [Fam2.2 aminoacylation ribozyme variant] | 32.7 | 2.84 | 6.53 | 4.4 | 2.56 | 4.73
